Reference: patent publication US20120316118A1 (OSSTEMIMPLANT, published 2012)

How the values were obtained:
[1] = molecular target: T1, BMPR-II (BMP receptor type II) (UniProt Q13873 27-151, limits assumed); experiment: ELISA: peptide coated on plate, BMPR-II added, detected with anti-receptor antibody and HRP secondary, ABTS, absorbance at 595 nm
T1 construct: Soluble receptor added to the PEP7-coated plate; also called BMPR-11; BMP-II
T1 sequence (looked up): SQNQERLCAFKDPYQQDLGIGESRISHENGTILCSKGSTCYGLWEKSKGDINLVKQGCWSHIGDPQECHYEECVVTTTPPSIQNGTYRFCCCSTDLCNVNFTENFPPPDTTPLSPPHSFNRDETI
Experimental: (§1) PEP7 ([…]) was added to an ELISA plate and incubated at 4° C. for 12 hours. After PEP7 was coated on the plate, BMPR-1A or BMPR-II ([…]) was added thereto and reacted at room temperature for 2 hours, to obtain a PEP7-BMP receptor complex. A primary antibody specific for a BMP receptor (0.5 mg BMPR-1A, BMPR-11) was added to the complex and reacted at room temperature for 1 hour. A secondary antibody (BMPR-1A- or BMPRII-Fc Ab-HRP) was then added to the resulting mixture and reacted at room temperature for 1 hour.

[2] = molecular target: T2, BMPR-IA (BMP receptor type IA) (UniProt P36894 24-152, limits assumed); experiment: ELISA: peptide coated on plate, BMPR-1A added, detected with anti-receptor antibody and HRP secondary, ABTS, absorbance at 595 nm
T2 construct: Soluble receptor added to the PEP7-coated plate; also called BMPR-1A; BMP-specific receptor
Experimental: as §1

T2 sequence (P36894 24-152 limits assumed): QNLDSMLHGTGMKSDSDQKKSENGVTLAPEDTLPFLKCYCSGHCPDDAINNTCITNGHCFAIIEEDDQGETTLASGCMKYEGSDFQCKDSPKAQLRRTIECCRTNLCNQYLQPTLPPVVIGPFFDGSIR

B1: PEP7 oligopeptide (SEQ ID NO:1) (peptide)
peptide: KIPKPSSVPTELSAISMLYL
notes: Synthetic peptide made by the Fmoc/tBu method, coated on the ELISA plate
For B1, the “binding affinity relative to PEP 111 (ELISA absorbance)” value [1] was about 23 % higher than PEP 111 and the “binding affinity relative to PEP 111 (ELISA absorbance)” value [2] was about 23 % higher than PEP 111.
